The numbers were not newly measured in paper PMC4569521, which cites them from elsewhere.

Data set [1] deals with MuA recognition peptides (Escherichia phage Mu) (UniProt P07636).
Data set [2] addresses MuA tetramer (Escherichia phage Mu) (UniProt P07636).

Sequence of ClpX (P0A6H1 2-424): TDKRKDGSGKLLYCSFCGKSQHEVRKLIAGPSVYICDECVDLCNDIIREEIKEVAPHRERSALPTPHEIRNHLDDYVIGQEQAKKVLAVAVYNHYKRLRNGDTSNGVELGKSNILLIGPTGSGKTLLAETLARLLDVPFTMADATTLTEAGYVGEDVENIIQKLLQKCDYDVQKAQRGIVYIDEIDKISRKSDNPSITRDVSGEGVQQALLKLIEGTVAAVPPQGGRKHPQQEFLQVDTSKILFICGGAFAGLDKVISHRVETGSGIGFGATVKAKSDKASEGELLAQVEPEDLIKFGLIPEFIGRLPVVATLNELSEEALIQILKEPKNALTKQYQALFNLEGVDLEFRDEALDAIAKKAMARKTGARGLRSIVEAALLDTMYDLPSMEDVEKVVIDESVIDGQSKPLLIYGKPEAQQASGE
Sequence of MuA recognition peptides (Escherichia phage Mu) (P07636 whole entry, looked up): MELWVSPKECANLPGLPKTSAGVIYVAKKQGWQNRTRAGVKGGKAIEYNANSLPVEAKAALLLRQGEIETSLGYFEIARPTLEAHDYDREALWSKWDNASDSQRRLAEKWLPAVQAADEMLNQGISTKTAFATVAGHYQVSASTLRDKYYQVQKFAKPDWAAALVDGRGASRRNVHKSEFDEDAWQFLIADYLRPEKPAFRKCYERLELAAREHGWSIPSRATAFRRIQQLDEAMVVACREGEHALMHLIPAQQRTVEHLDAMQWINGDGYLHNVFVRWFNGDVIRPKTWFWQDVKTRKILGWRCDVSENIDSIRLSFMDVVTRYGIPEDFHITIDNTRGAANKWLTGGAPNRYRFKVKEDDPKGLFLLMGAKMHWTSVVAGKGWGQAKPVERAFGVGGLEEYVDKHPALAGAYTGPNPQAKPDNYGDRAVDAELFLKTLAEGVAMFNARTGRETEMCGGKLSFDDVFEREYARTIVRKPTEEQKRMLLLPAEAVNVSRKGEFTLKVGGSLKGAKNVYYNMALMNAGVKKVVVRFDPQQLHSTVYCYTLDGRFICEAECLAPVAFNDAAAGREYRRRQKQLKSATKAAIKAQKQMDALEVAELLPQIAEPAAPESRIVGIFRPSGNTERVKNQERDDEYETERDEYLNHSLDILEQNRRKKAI
Sequence of MuA tetramer (Escherichia phage Mu) (P07636 whole entry): as the sequence (P07636 whole entry, looked up) above

As usually defined, the Kd is the equilibrium constant for the complex coming apart. In the case of ClpX (from UniProt P0A6H1), the Kd is above 70 µM in data set [1] and 1 µM in data set [2].
